Results reported in US20220194987A1.
Positions of bridges follow the written chain, without caps; N, C: chain ends. No end group written: not given here.

Key:
[1] = molecular target: human BKα channel ZERO isoform (human) (UniProt Q12791); assay: cell-based or functional assay
[2] = molecular target: human BKα channel ZERO isoform (human) (UniProt Q12791); assay: phagemid display panning, positive selection on HEK293 cells expressing human BKα ZERO; enrichment over the theoretical frequency in the library

B1: LS3 (peptide)
peptide: CRRGLVQVC
modifications: disulfide 1-9; also: TFA salt
B1 showed a suppression of channel openings (patch clamp, HEK293 cells) (fraction of openings suppressed) [1] of 0.67 and a fold enrichment of its motifs in the phagemid panning [2] of over 1000 fold.

B2: LS1 (peptide)
peptide: CARGVYRVC
modifications: disulfide 1-9
In the case of B2, the probability of opening, combination of pskan1 and pskan4, 10 microM, outside-out patches [1] is reported as 1.6 fold.

B3: LS4 (peptide)
peptide: CPPGRGAVC
modifications: disulfide 1-9
Work on B3 yielded a probability of opening, combination of pskan1 and pskan4, 10 microM, outside-out patches [1] of 1.6 fold.
